# Biological target: Ageratum yellow vein virus capsid protein (CP), in the geminate virus particle (Ageratum yellow vein virus)
# Experiment: cryo-EM structure; single-particle cryo-EM of purified AYVV geminate particles, D5 symmetry, 3.3 Å; particles in 100 mM sodium phosphate pH 7.0; capsid holds the genomic ssDNA
substance,measurement,value
"Ageratum yellow vein virus capsid protein (CP), in the geminate virus particle (natural protein)",stoichiometry N,110

# From PMC6006435
